Our source for the switch fluorescence ratio values is the supplement of paper PMC10126150.

± gives the standard deviation of the averaged measurements.
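Further: ATP exposure 15 min at 22 °C before imaging.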

The series concerns ATP. The series is described as follows: switch fluorescence ratio, 500 uM ATP over buffer (Cy3 cluster intensity, sum of 5 cycles each) (fold (ratio)); higher = stronger signal-on switching upon ATP binding; sequences stand for … in TCGTCGGCAGCGTCAGATGTGTATAAGAGACAGTTTTTTTTTTTTTTTTTTTTTTTTT…TC. To be noted: aptamer strand: ATP DNA aptamer (quencher-CACCTGGGGGAGTATTGCGGAGGAAGG + anchor), 100 nM annealed; ATP concentration: 500 uM. An outline of the steps:
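Switching-strand clusters labelled with Cy3 on a modified Illumina MiSeq flow-cell were annealed to 100 nM quencher-labelled ATP aptamer, imaged in selection buffer, and re-imaged after 15 min with 500 uM ATP at 22 °C. This was done over five cycles with NaOH stripping and re-annealing in between. The fluorescence ratio is summed target-cycle over summed buffer-cycle Cy3 intensity per cluster, averaged per switch-domain sequence, excluding clusters outside 100-1000 RFU.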
In the case of TTGGGGCCAG, the switch fluorescence ratio was found to be 1.09 ± 0.12.
The result for GGGGCACATT reads 0.9885 ± 0.0046; that for TGGAGGTCCG, 1.06 ± 0.023; that for CGTCCCAGCT, 1.12 ± 0.018.
In the case of GCATTTGATG it was 1.0205 ± 0.00084; in that of TTCCAGGATT, 1.04 ± 0.089; in that of GAGGGGGGCA, 0.977 ± 0.03.
With GGGGTTGTCT, the switch fluorescence ratio worked out at 1.01 ± 0.072.
On to AAGTAATTTC, for which the switch fluorescence ratio amounted to 1.02 ± 0.013.
In the case of AGCACATGTC, the switch fluorescence ratio came out at 1.07 ± 0.027.
In the case of TTCGTATCAG it was 1.02 ± 0.035; in that of ATCCGGGTGG, 1 ± 0.059; in that of TACGTTTCC, 1.138 ± 0.0089.
As to TGGTAAATCG, the switch fluorescence ratio came out at 1.03 ± 0.038.
In the case of ATAACATTAG, the switch fluorescence ratio amounted to 0.9984 ± 0.0069.
On to TCCGGCTATT, for which the switch fluorescence ratio was 1.108 ± 0.0087.
In the case of AGAAATCGGA it was 1.038 ± 0.0056; in that of GTGGCGGGGA, 1.02 ± 0.038; in that of GCCTGCGGGG, 1.04 ± 0.046.
Regarding GGGGTTTGGA, the switch fluorescence ratio was found to be 0.987 ± 0.024.
In the case of GCTTTGATTT it was 1.02 ± 0.022; in that of GGAATAGGCT, 0.967 ± 0.059; in that of GTGTTTGGGG, 0.977 ± 0.023.
The result for CACAAAAGCG reads 1.01 ± 0.042.
In the case of TAAGGGTGCC it was 1.01 ± 0.03; in that of TTTTGTGTTT, 0.997 ± 0.028.
Turning to TCTGGAGTT, the switch fluorescence ratio is 1.077 ± 0.005.
In the case of ATTTTAGCTC, the switch fluorescence ratio came to 0.984 ± 0.015.
The result for AAAGTTTTGT reads 0.983 ± 0.023; that for CGTGTGTACC, 1.007 ± 0.0049; that for GGGGGGAGCA, 0.992 ± 0.018.
With AGAAAGCGCG, the switch fluorescence ratio came to 1.05 ± 0.019.
In the case of GCCTTTTCGA it was 0.9827 ± 0.0025; in that of AAGTGTATCA, 0.983 ± 0.02.
In the case of CGGACTAAGA, the switch fluorescence ratio came out at 1.04 ± 0.012.
Take GAGTTGGGAG: the switch fluorescence ratio was 1.01 ± 0.032.
In the case of TCTTTACAGT it was 1.05 ± 0.032; in that of TGCTGCGGTG, 0.993 ± 0.0084; in that of TGGGGGGTTG, 1.02 ± 0.049.
In the case of TTCTTTATAT it was 0.9721 ± 0.005; in that of ATGTGCCTGC, 1.07 ± 0.03.
As for CAGGGTTTTA, the switch fluorescence ratio worked out at 1.006 ± 0.0055.
Turning to GTAAGGGGCG, the switch fluorescence ratio was 1.02 ± 0.035.
The result for CTTATTCGTC reads 1.04 ± 0.025.
The result for TAAGTCGTTG reads 1.03 ± 0.12.
In the case of TGCGGTGTGC, the switch fluorescence ratio is 1.04 ± 0.017.
In the case of TAACGCTAGA it was 1.06 ± 0.03; in that of GGCATTCGTG, 0.9743 ± 0.0049; in that of TTTAGGGGAT, 1.01 ± 0.038.
In the case of TTGAGTAATG it was 1.01 ± 0.017; in that of GAGAAATGCG, 1.03 ± 0.012; in that of TGGGGGAAGT, 1.01 ± 0.029.
The result for TTTTGGAGCG reads 1.05 ± 0.052; that for TGTTTTTAGT, 0.9945 ± 0.0039; that for CGTCATTGGG, 0.992 ± 0.045.
On to GTGGGTTGGT, for which the switch fluorescence ratio turned out to be 1.008 ± 0.0054.
In the case of AGAAAATTTT it was 1.03 ± 0.031; in that of CAAGGAAGAT, 1.02 ± 0.014.
With TTCGATATGT, the switch fluorescence ratio worked out at 0.984 ± 0.022.
The result for CTTTTGAGAC reads 1.02 ± 0.053.
In the case of GATTAAACGG it was 1.04 ± 0.04; in that of GGTAGCGAAG, 0.97 ± 0.026; in that of GCAAGCAAGA, 1.18 ± 0.067.
The result for AGTTTATAAT reads 0.982 ± 0.023.
Take AAGGGGGTAG: the switch fluorescence ratio stood at 1.01 ± 0.032.
The result for TAAAAACGAC reads 1.04 ± 0.051; that for AGTCTGGGGG, 0.959 ± 0.011; that for CTCATAGCGC, 1.02 ± 0.035.
Consider TGTCGGCTGC, for which the switch fluorescence ratio amounted to 1.09 ± 0.015.
Take GGGTTGGGCT: the switch fluorescence ratio turned out to be 1 ± 0.03.
For AAGTATAGTT, the switch fluorescence ratio was 1.04 ± 0.056.
The result for CAGGACCTCG reads 1.03 ± 0.024; that for GAGGCATTGC, 1.65 ± 0.24.
The result for GAGTGAGTAG reads 0.9794 ± 0.0059; that for AGAAGGGGGT, 1.02 ± 0.035; that for TCCTGGGTTT, 1.27 ± 0.48.
For ATGTAAAATT, the switch fluorescence ratio was found to be 0.972 ± 0.038.
The result for AAGTGAAAGC reads 1.01 ± 0.068; that for AAATCGCAGA, 1 ± 0.025; that for GGTTTCCGGC, 1.008 ± 0.0087.
In the case of TGTGATGCCG it was 0.976 ± 0.015; in that of TGCGAGATTT, 1.01 ± 0.018.
In the case of AAGCCAGTGG it was 1.014 ± 0.0035; in that of AATAAACAAA, 0.978 ± 0.013; in that of TTATATTCTT, 0.9964 ± 0.0042.
As to GAATTCCAGT, the switch fluorescence ratio was 0.9968 ± 0.0076.
As for AGTCCAAGAG, the switch fluorescence ratio is 0.9889 ± 0.0045.
As for GCGAATATCC, the switch fluorescence ratio was found to be 1.11 ± 0.017.
For the sequence GGGGGGATCC, the switch fluorescence ratio stood at 0.996 ± 0.044.
The result for TTATTTGTTG reads 0.971 ± 0.05; that for CCTTAATCTT, 0.987 ± 0.026.
In the case of AATTTGCGGT it was 0.988 ± 0.022.
The result for ACTCGATACG reads 1.07 ± 0.037.
For the sequence TTCGTATAGA, the switch fluorescence ratio stood at 1 ± 0.041.
TTTAGGAGGG: the switch fluorescence ratio was determined as 0.997 ± 0.019.
The result for GAAGGGTAAT reads 0.9955 ± 0.0036; that for TTTGTATTCG, 1.004 ± 0.0064.
Take GCCGGAAAGG: the switch fluorescence ratio was 0.9857 ± 0.0075.
In the case of TTTGCTATCA it was 0.984 ± 0.013.
In the case of AAAAATCACT it was 1.04 ± 0.039; in that of GTGTGATCTC, 0.992 ± 0.046.
The result for CTTGGGTTTT reads 0.9548 ± 0.0091.
For the sequence TATTTTGTCT, the switch fluorescence ratio turned out to be 1.1 ± 0.13.
In the case of GGAGGGACTG it was 1.06 ± 0.17; in that of TAGTTGAATT, 0.998 ± 0.014; in that of CGGGGTCCTC, 1.01 ± 0.018.
As for ATGGTGAGGA, the switch fluorescence ratio was 0.995 ± 0.018.
The result for AATCTGCTTG reads 1.05 ± 0.024; that for AGTTTTGGCA, 1.03 ± 0.015; that for CATGATTTAT, 1 ± 0.054.
The result for AGGGAGAGTT reads 1.02 ± 0.017.
For CGTTGTTTTG, the switch fluorescence ratio was determined as 0.9848 ± 0.0091.
In the case of TGAAGACCAT, the switch fluorescence ratio came to 1.016 ± 0.0058.
With TTTAGTTATT, the switch fluorescence ratio amounted to 0.998 ± 0.017.
The result for TTTTTTTAAT reads 1 ± 0.028.
The result for ATATGGTGTT reads 1.01 ± 0.025; that for TATAGTGTAA, 1.01 ± 0.048.
On to TCATAGGGTG, for which the switch fluorescence ratio is 1.03 ± 0.1.
Regarding AGCGCCGCGT, the switch fluorescence ratio was 1.09 ± 0.13.
In the case of GGTAGGGGGC it was 1.01 ± 0.033.
